Percent Inhibition At 1 µM concentration data for 4 substances are collected here from US7176279.

One assay concerns the target hMC5-R (human) (UniProt P33032). As to the kind of experiment: competition with 125I-NDP-MSH, HEK 293 hMC5-R membranes, 1 µM peptide.
Another assay deals with hMC4-R (human) (UniProt P32245). As to the kind of experiment: competition with 125I-NDP-MSH, HEK 293 hMC4-R membranes, 1 µM peptide.
For the next assay, the target named is hMC3-R (human) (UniProt P41968). As to the kind of experiment: competition with 125I-NDP-MSH, HEK 293 hMC3-R membranes, 1 µM peptide.
Sequence of hMC3-R (human) (P41968 whole entry): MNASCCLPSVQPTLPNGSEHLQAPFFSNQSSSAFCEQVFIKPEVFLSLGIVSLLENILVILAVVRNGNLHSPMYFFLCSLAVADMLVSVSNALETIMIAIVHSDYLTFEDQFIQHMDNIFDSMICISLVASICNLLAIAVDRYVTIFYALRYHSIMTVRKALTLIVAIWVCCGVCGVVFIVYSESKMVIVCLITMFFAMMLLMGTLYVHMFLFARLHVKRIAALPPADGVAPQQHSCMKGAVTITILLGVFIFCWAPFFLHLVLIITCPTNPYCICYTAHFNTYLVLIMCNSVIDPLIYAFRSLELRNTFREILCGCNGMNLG

Sequence of hMC4-R (human) (P32245 whole entry): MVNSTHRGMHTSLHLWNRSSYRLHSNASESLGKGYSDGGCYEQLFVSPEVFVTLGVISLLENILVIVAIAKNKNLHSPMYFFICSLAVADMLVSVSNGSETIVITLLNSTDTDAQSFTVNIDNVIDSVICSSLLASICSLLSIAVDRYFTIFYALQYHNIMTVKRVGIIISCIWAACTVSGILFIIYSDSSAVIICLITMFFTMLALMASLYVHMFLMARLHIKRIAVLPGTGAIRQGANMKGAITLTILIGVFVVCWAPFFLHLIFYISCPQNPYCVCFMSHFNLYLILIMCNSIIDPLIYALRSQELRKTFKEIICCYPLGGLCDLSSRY
Sequence of hMC5-R (human) (P33032 whole entry): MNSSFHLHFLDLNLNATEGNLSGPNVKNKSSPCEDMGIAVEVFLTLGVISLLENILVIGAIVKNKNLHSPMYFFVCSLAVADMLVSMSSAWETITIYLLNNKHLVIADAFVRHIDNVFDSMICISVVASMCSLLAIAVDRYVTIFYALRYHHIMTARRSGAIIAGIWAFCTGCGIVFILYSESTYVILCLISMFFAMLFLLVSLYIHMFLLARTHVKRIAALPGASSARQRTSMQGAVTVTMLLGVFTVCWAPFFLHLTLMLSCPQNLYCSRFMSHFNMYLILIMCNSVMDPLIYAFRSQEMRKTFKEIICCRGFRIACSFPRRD

Regarding “Ac-Nle-cyclo(-Asp-D-His-D-Phe-Arg-Trp-Lys)-OH (peptide)”, the figures for the Percent Inhibition At 1 µM concentration in the assay with hMC5-R (human) and with hMC4-R (human) were 8% and 9%, respectively.

In turn, “Ac-Nle-cyclo(-Asp-His-D-Phe-D-Arg-Trp-Lys)-OH (peptide)” yielded a Percent Inhibition At 1 µM concentration in the assay with hMC4-R (human) of 4%.

In turn, “Ac-Nle-cyclo(-Asp-His-D-Phe-Orn-Trp-Lys)-OH (peptide)” showed a Percent Inhibition At 1 µM concentration with hMC3-R (human) of 6%. In the case of “Ac-Nle-cyclo(-Asp-His-Phe-Arg-Trp-Lys)-OH (SEQ ID NO:2) (peptide)”, the Percent Inhibition At 1 µM concentration with hMC5-R (human) came to 7%; with hMC4-R (human), 4%.
